Data from article PMC4015550, “Immunopurification of adenomatous polyposis coli (APC) proteins” (BMC Research Notes, 2013).

Biological target: the molecule itself
Experiment: not stated; data not shown; APC fragment of residues 1-61 said to form a dimer; no method or conditions told

B1: APC-NT antigen (APC residues 1–61 with an N-terminal FLAG-tag) (domain or fragment, human, UniProt P25054 1-61, looked up)
chain: MAAASYDQLLKQVEALKMENSNLRQELEDNSNHLTKLETEASNMKEVLKQLQGSIEDEAMA
notes: adenomatous polyposis coli (APC), human, amino acids 1-61, the N-terminal oligomerisation (coiled-coil) region; also called N-terminal fragment of APC (residues 1–61); source: E. coli (pET30a+), purified (anti-FLAG M2 Sepharose, MonoQ anion exchange, reversed-phase HPLC)
stoichiometry N: 2
